Substitutions are numbered along the chain they refer to. Names may count otherwise.
Experiments:
Details in all cases: both partners purified
[1] = biological target: T1, Css4 toxin (Centruroides suffusus, UniProt P60266); assay: SPR
T1 construct: source: purified from scorpion venom

[2] = biological target: T2, CeII9 toxin (Centruroides elegans)
T2 construct: also called Cell9; source: purified from scorpion venom
T2 chain: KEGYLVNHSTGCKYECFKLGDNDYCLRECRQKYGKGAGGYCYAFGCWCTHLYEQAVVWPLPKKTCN

[3] = biological target: T3, Css2 toxin (Centruroides suffusus)
T3 construct: source: purified from scorpion venom
T3 chain: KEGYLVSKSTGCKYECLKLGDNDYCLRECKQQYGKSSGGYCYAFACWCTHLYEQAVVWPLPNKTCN

[4] = biological target: T4, Cll1 toxin (Centruroides limpidus); assay: SPR
T4 construct: source: purified from scorpion venom
T4 chain: T2 chain with L5I, H8L, F17Y, R30K, K32Q, N66T

[5] = biological target: T5, Cll2 toxin (Centruroides limpidus); assay: SPR
T5 construct: source: purified from scorpion venom
T5 chain: T2 chain with R30K, K32Q, T49N

[6] = biological target: T6, Cn2 toxin (Centruroides noxius); assay: SPR
T6 construct: source: purified from scorpion venom

[7] = biological target: T7, Ct1a toxin (Centruroides tecomanus); assay: SPR
T7 construct: source: purified from scorpion venom
T7 chain: T2 chain with K32Q

[8] = biological target: T6, Cn2 toxin; assay: SPR; remark: listed apart in the source
[9] = biological target: T3, Css2 toxin; assay: SPR

B1: scFv 10FG2 (scFv, V domains shown)
VH: QVNLRESGGGLVQPGGSLRLSCAASGFSFGSYGMHWVRQAPGKGLEWVAVISYGGGSKYYADSVKGRFTISRDNSKNTLYLQMNSLRAEDTAVYYCAKDARDCLLCSDWTFDLWGRGTLVTVSS
VL: NFMLTQPHSASGTPGQRVTISCSGSSSNIGSNTVNWYRHLPGSAPELLIGSHNQRPSGVPDRFSGSKSGTSASLAISGLQSEDEADYYCAAWDDSTLGYVFGTGTKLTVL
notes: also called 10F5; scFv 10F5
binding result [1]: binds | Kd [2]: 6.1 nM | koff [2]: 0.000925 s⁻¹ | kon [2]: 150000 M⁻¹ s⁻¹ | Kd [3]: 2.75 nM | koff [3]: 0.00055 s⁻¹ | kon [3]: 195000 M⁻¹ s⁻¹ | Kd [4]: 0.23 nM | TR (time of residence) [4]: 264 min | koff [4]: 6.3e-05 s⁻¹ | kon [4]: 265000 M⁻¹ s⁻¹ | Kd [5]: 4.2 nM | TR (time of residence) [5]: 18.5 min | koff [5]: 0.0009 s⁻¹ | kon [5]: 220000 M⁻¹ s⁻¹ | Kd [6]: 0.7 nM | TR (time of residence) [6]: 163 min | koff [6]: 0.000102 s⁻¹ | kon [6]: 150000 M⁻¹ s⁻¹ | Kd [7]: 8 nM | TR (time of residence) [7]: 16.7 min | koff [7]: 0.001 s⁻¹ | kon [7]: 170000 M⁻¹ s⁻¹

B2: scFv 10F (scFv, V domains shown)
VH: B1 VH with S107A
VL: B1 VL with S25I, G65A
binding result [8]: binds

B3: scFv 10F1 (scFv, V domains shown)
VH: B1 VH with S107A
VL: B1 VL with S25I
notes: VH, linker (G125 to S139), VL on one chain; numbers run through the whole scFv; 10F with A204G; source: expression vector pSyn1, purified (Ni2+-NTA, Superdex 75 gel filtration), monomer
binding result [1]: binds | binding result [9]: binds | binding result [8]: binds

B4: scFv 10F4 (scFv, V domains shown)
VH: B1 VH with T110N
VL: B1 VL
binding result [1]: binds | binding result [9]: binds | binding result [8]: binds

— PMC6356842 (Toxins, 2019)
